Key:
[1] = molecular target: T1, Lrp5 (endogenous, in mouse kidney) (mouse, UniProt Q91VN0 31-1614); test: Western blot for S-tag proteins in whole d5 post I/R kidney from mice treated with Dkk2-C2
T1 construct: whole, on cells; Endogenous receptor in whole d5 post I/R kidney; The complex was detected in kidney lysate by Western blot; also called Lipoprotein receptor like protein 5
Protocol: (§1) For detection of Dkk2-C2, western blots of 50μg of whole kidney protein lysate per lane were incubated with anti-S-tag antibodies (1:500, BD Biosciences) followed by secondary HRP conjugated antibodies. After detection and stripping blots were re-detected with anti-beta-actin (1:1000, Santa Cruz Biotechnology). The purified recombinant Dkk2C contained only one single band in SDS-PAGE.
(§2) This C2 recombinant form of Dkk2 was administered from d0 to WT mice that were uninjured or which had kidney injury. Kidneys were harvested on day 2 and day 7 after injury and assessed quantitatively for injury. […] After detection and stripping blots were re-detected with anti-beta-actin (1:1000, Santa Cruz Biotechnology). […] When systemic delivery of Dkk2 was delayed until after peak injury at d1, it was nevertheless detectable in the kidney (FIG. 5G) and it retained the capacity to improve kidney function as assessed by plasma creatinine levels (FIG. 5D). […] To understand whether Dkk2 was functioning to augment the canonical pathway, Wnt signalling in kidney cortex of d5 post I/R mice was assessed by detection of phosphorylated Lrp6 since canonical signalling requires phosphorylation of this co-receptor (Zeng et al., Nature 438(7069):873-877 (in eng) (2005)) (FIG. 5E). pLrp6 was not detected in healthy adult kidney cortex (FIG. 1G) but was robustly detected in kidney cortex following injury.

[2] = molecular target: T2, Lrp6 (endogenous, in mouse kidney) (mouse, UniProt O88572 20-1613); test: as above
T2 construct: whole, on cells; Endogenous receptor in whole d5 post I/R kidney or kidney cortex; also called Lipoprotein receptor like protein 6
Protocol: as §1, §2

T1 sequence (Q91VN0 31-1614): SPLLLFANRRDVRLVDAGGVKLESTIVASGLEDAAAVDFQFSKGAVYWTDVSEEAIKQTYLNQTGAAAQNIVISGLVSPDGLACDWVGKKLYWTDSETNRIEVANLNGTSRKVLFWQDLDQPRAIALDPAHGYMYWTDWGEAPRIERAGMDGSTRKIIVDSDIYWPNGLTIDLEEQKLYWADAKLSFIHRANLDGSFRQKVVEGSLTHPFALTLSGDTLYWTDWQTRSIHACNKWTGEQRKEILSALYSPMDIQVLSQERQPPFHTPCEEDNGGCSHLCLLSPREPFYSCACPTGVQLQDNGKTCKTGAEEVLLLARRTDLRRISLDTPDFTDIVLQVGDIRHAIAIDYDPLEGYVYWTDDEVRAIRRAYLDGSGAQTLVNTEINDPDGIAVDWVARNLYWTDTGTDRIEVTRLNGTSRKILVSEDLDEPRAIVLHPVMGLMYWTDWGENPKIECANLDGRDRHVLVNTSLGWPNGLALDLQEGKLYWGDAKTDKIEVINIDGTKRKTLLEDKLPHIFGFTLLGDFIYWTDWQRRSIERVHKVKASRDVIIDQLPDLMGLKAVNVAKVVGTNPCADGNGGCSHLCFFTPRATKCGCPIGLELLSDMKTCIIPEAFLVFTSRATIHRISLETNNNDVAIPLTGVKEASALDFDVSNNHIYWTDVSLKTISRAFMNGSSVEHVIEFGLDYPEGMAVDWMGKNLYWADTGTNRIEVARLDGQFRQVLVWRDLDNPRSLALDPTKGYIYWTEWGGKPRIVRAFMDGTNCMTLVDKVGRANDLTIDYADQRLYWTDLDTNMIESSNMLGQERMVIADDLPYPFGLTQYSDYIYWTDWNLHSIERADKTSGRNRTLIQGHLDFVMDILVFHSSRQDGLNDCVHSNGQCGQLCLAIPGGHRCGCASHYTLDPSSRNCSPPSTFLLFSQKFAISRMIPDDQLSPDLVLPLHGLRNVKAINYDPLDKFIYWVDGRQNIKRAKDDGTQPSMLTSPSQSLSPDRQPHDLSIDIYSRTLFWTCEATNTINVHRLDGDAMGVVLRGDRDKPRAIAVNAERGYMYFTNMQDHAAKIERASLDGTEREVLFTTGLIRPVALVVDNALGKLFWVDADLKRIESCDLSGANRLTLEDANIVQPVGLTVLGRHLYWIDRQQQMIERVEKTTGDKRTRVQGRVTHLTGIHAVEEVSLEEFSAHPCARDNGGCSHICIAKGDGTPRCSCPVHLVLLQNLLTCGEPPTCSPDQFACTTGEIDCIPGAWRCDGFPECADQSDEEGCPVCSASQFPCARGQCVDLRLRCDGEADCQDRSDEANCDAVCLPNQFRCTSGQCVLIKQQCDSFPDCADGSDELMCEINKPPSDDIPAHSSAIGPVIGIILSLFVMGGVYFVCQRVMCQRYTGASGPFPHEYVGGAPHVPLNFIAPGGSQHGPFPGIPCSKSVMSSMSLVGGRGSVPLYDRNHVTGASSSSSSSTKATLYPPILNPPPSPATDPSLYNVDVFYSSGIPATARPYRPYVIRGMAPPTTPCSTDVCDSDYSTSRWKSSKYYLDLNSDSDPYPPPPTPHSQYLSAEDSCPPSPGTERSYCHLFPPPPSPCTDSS
T2 sequence (O88572 20-1613): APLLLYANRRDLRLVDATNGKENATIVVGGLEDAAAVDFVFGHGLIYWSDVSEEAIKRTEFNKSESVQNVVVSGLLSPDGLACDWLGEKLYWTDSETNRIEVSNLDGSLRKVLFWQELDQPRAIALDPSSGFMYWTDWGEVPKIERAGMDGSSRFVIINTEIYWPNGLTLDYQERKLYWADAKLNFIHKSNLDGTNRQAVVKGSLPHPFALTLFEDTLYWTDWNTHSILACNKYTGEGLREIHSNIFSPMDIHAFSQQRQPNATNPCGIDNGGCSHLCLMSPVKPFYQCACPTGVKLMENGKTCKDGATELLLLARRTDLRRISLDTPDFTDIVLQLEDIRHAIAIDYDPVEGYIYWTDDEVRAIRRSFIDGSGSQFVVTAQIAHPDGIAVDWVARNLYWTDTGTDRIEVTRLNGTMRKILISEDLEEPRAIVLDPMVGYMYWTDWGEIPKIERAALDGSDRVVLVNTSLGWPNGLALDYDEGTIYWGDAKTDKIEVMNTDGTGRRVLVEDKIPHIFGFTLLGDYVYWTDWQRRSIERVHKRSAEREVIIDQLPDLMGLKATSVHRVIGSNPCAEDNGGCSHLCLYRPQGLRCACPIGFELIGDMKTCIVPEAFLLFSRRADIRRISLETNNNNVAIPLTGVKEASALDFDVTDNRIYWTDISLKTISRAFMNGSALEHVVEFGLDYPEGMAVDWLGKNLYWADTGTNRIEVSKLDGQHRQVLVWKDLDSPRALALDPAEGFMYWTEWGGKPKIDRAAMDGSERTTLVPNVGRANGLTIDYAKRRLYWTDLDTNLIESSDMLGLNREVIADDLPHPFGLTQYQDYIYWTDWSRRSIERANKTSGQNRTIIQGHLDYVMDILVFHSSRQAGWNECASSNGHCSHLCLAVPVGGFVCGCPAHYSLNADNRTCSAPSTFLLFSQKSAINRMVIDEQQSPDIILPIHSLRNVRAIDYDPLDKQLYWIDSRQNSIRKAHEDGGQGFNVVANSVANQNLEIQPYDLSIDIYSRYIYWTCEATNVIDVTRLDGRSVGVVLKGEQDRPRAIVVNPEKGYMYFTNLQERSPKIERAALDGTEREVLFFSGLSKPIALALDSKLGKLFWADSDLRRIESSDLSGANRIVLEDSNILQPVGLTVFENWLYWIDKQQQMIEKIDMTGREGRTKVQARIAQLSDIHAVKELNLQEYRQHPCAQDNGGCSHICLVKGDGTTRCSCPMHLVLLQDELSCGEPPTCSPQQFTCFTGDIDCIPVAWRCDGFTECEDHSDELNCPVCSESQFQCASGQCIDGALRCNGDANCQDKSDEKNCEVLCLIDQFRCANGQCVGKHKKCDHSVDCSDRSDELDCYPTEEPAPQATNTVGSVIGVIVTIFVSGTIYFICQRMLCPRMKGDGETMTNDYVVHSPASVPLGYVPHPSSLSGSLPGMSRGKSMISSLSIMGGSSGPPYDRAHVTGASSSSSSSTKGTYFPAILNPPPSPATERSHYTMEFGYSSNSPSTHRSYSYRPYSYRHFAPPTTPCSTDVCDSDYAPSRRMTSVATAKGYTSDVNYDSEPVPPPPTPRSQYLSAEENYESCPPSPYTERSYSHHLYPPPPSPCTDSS

B1: recombinant protein Dkk2C (amino acids Met172-Ile259 of mouse Dkk2) with N-terminal S tag and thrombin cleavage site (ligand)
chain: MPHIKGHEGDPCLRSSDCIDGFCCARHFWTKICKPVLHQGEVCTKQRKKGSHGLEIFQRCDCAKGLSCKVWKDATYSSKARLHVCQKI
notes: Expressed in E. coli; Detected in kidney lysate with anti-S-tag antibodies, so the S tag was still on the protein; also called Dkk2-C2; D2C2; not shown: N-terminal S tag; thrombin cleavage site between the S tag and Dkk2C
B1: binds [1]; binds [2].

From patent US8703708 (CINCINNATI CHILDREN S HOSPITAL MEDICAL CENTER, dated 2014)
